According to publication PMC4549301 (2015):

B1: GST–HCF-1rep1, wild type (HCF-1 residues 867–1071) [human] / Recombinant human O-linked β-N-acetylglucosamine transferase (OGT), wild type [human] (parent complex)
chain 1: PAVTTLVVKGTTGVTTLGTVTGTVSTSLAGAGGHSTSASLATPITTLGTIATLSSQVINPTAITVSAAQTTLTAAGGLTTPTITMQPVSQPTQVTLITAPSGVEAQPVHDLPVSILASPTTEQPTATVTIADSGQGDVQPGTVTLVCSNPPCETHETGTTNTATTTVVANLGGHPQPTQVQFVCDRQEAAASLVTSTVGQQNGSV
chain 2: MASSVGNVADSTGLAELAHREYQAGDFEAAERHCMQLWRQEPDNTGVLLLLSSIHFQCRRLDRSAHFSTLAIKQNPLLAEAYSNLGNVYKERGQLQEAIEHYRHALRLKPDFIDGYINLAAALVAAGDMEGAVQAYVSALQYNPDLYCVRSDLGNLLKALGRLEEAKACYLKAIETQPNFAVAWSNLGCVFNAQGEIWLAIHHFEKAVTLDPNFLDAYINLGNVLKEARIFDRAVAAYLRALSLSPNHAVVHGNLACVYYEQGLIDLAIDTYRRAIELQPHFPDAYCNLANALKEKGSVAEAEDCYNTALRLCPTHADSLNNLANIKREQGNIEEAVRLYRKALEVFPEFAAAHSNLASVLQQQGKLQEALMHYKEAIRISPTFADAYSNMGNTLKEMQDVQGALQCYTRAIQINPAFADAHSNLASIHKDSGNIPEAIASYRTALKLKPDFPDAYCNLAHCLQIVCDWTDYDERMKKLVSIVADQLEKNRLPSVHPHHSMLYPLSHGFRKAIAERHGNLCLDKINVLHKPPYEHPKDLKLSDGRLRVGYVSSDFGNHPTSHLMQSIPGMHNPDKFEVFCYALSPDDGTNFRVKVMAEANHFIDLSQIPCNGKAADRIHQDGIHILVNMNGYTKGARNELFALRPAPIQAMWLGYPGTSGALFMDYIITDQETSPAEVAEQYSEKLAYMPHTFFIGDHANMFPHLKKKAVIDFKSNGHIYDNRIVLNGIDLKAFLDSLPDVKIVKMKCPDGGDNADSSNTALNMPVIPMNTIAEAVIEMINRGQIQITINGFSISNGLATTQINNKAATGEEVPRTIIVTTRSQYGLPEDAIVYCNFNQLYKIDPSTLQMWANILKRVPNSVLWLLRFPAVGEPNIQQYAQNMGLPQNRIIFSPVAPKEEHVRRGQLADVCLDTPLCNGHTTGMDVLWAGTPMVTMPGETLASRVAASQLTCLGCLELIAKNRQEYEDIAVKLGTDLEYLKKVRGKVWKQRISSPLFNTKQYTMELERLYLQMWEHYAAGNKPDHMIKPVEVTESA

Variants of: B1
Assay: in vitro HCF-1rep1-OGT binding assay (OGT pull-down, quantified immunoblot); in the presence of UDP-GlcNAc; read off a plot

Row | Variant | screen value [log2 fold change]
1 | chain 1 E156A | ~-1.1
2 | chain 1 H155A | ~-0.5
3 | chain 1 C152A | ~-0.55

Next, values leading:

Row | screen value [log2 fold change] | Variant
4 | ~-0.7 | chain 1 P151A
5 | ~-3 | chain 1 T157A
6 | ~0.3 | chain 1 T154A
7 | ~-1.7 | chain 1 P150A
